Measurements published in article PMC6937562, “Combining SPR with atomic-force microscopy enables single-molecule insights into activation and suppression of the complement cascade” (The Journal of Biological Chemistry, 2019).

What was measured:
Details in all cases: both partners purified
C3b [1] = molecular target: T1, C3b (human, UniProt P01024 23-667; P01024 749-1663); assay: SPR; homemade HJEM2 chip (1% COOH, 99% OH), 313 RU C3b amine-coupled; FH flowed (2 μM to 3.9 nM); Biacore T200, 25 °C, HBS-P pH 7.4; 1:1 steady-state model
T1 construct: complement C3 beta chain, human; Immobilised by amine coupling, via the nascent thioester (physiological) or via the free thiol of hydrolysed C3b; the way is told in each assay's format; also called C3b(H2O); C3b-SH; source: bought: Complement Technologies, Inc. (human plasma-derived)

C3b [2] = molecular target: T1, C3b; assay: SPR; C1 chip, 144 RU C3b amine-coupled; FH flowed (2 μM to 7.8 nM, 2-fold series, duplicates); Biacore T200, 25 °C, HBS-P pH 7.4, 150 mM NaCl, 1 mM MgCl2; 1:1 steady-state model
C3b [3] = molecular target: T1, C3b; assay: SPR; homemade HJEM4 chip with maleimide groups, 240 RU hydrolyzed C3b coupled via its free thiol; FH flowed (2 μM to 3.9 nM); Biacore T200, 25 °C, HBS-P pH 7.4; 1:1 steady-state model
C3b [4] = molecular target: T1, C3b; assay: SPR; C1 chip, 196 RU C3b immobilised physiologically (seed C3b, then seven cycles of FB+FD and C3); FH flowed (2 μM to 7.8 nM); Biacore T200, 25 °C, HBS-P pH 7.4; 1:1 steady-state model
C3b [5] = molecular target: T1, C3b; assay: SPR; homemade HJEM7 chip (50% OH, 25% COOH, 25% propargyl), 144 RU C3b amine-coupled; FH (2 μM to 3.9 nM) or FH 19–20 (10 μM to 3.9 nM) flowed; Biacore T200, 25 °C, HBS-P pH 7.4; 1:1 steady-state model
C3b [6] = molecular target: T1, C3b; assay: SPR; homemade HJEM7 chip, 143 RU C3b amine-coupled and 174 RU 3′-sialyllactose clicked on; FH (2 μM to 3.9 nM) or FH 19–20 (10 μM to 3.9 nM) flowed; Biacore T200, 25 °C, HBS-P pH 7.4; 1:1 steady-state model

B1: factor H (natural protein, human, UniProt P08603 19-1231, looked up)
chain: EDCNELPPRRNTEILTGSWSDQTYPEGTQAIYKCRPGYRSLGNVIMVCRKGEWVALNPLRKCQKRPCGHPGDTPFGTFTLTGGNVFEYGVKAVYTCNEGYQLLGEINYRECDTDGWTNDIPICEVVKCLPVTAPENGKIVSSAMEPDREYHFGQAVRFVCNSGYKIEGDEEMHCSDDGFWSKEKPKCVEISCKSPDVINGSPISQKIIYKENERFQYKCNMGYEYSERGDAVCTESGWRPLPSCEEKSCDNPYIPNGDYSPLRIKHRTGDEITYQCRNGFYPATRGNTAKCTSTGWIPAPRCTLKPCDYPDIKHGGLYHENMRRPYFPVAVGKYYSYYCDEHFETPSGSYWDHIHCTQDGWSPAVPCLRKCYFPYLENGYNQNYGRKFVQGKSIDVACHPGYALPKAQTTVTCMENGWSPTPRCIRVKTCSKSSIDIENGFISESQYTYALKEKAKYQCKLGYVTADGETSGSITCGKDGWSAQPTCIKSCDIPVFMNARTKNDFTWFKLNDTLDYECHDGYESNTGSTTGSIVCGYNGWSDLPICYERECELPKIDVHLVPDRKKDQYKVGEVLKFSCKPGFTIVGPNSVQCYHFGLSPDLPICKEQVQSCGPPPELLNGNVKEKTKEEYGHSEVVEYYCNPRFLMKGPNKIQCVDGEWTTLPVCIVEESTCGDIPELEHGWAQLSSPPYYYGDSVEFNCSESFTMIGHRSITCIHGVWTQLPQCVAIDKLKKCKSSNLIILEEHLKNKKEFDHNSNIRYRCRGKEGWIHTVCINGRWDPEVNCSMAQIQLCPPPPQIPNSHNMTTTLNYRDGEKVSVLCQENYLIQEGEEITCKDGRWQSIPLCVEKIPCSQPPQIEHGTINSSRSSQESYAHGTKLSYTCEGGFRISEENETTCYMGKWSSPPQCEGLPCKSPPEISHGVVAHMSDSYQYGEEVTYKCFEGFGIDGPAIAKCLGEKWSHPPSCIKTDCLSLPSFENAIPMGEKKDVYKAGEQVTYTCATYYKMDGASNVTCINSRWTGRPTCRDTSCVNPPTVQNAYIVSRQMSKYPSGERVRYQCRSPYEMFGDEEVMCLNGNWTEPPQCKDSTGKCGPPPPIDNGDITSFPLSVYAPASSVEYQCQNLYQLEGNKRITCRNGQWSEPPKCLHPCVISREIMENYNIALRWTAKQKLYSRTGESVEFVCKRGYRLSSRSHTLRTTCWDGKLEYPTCAKR
notes: complement factor H, human, 155-kDa serum glycoprotein of 20 CCP modules; Free FH: flowed as analyte in SPR, or amine-coupled directly to the AFM tip; also called FH; CFH; source: isolated from human plasma (TCS Biosciences Ltd.)
**Q.** For B1, which Kd (C3b [1]) is on record?
**A.** 50 nM

**Q.** What about the Kd (C3b [2]) of the same binder?
**A.** 230 nM

**Q.** And the Kd (C3b [3])?
**A.** 180 nM

**Q.** What about the Kd (C3b [4]) of the same binder?
**A.** 130 nM

**Q.** And the Kd (C3b [5])?
**A.** 70 nM

**Q.** And the Kd (C3b [6])?
**A.** 90 nM
